For 3 substances, stoichiometry N results are on record in article PMC10787587.

What is called stoichiometry N is a count of units in the complex or per binding partner.

Test in all cases: SEC
(In general: In gel filtration, larger molecules generally elute earlier.)

Experiment [1] has as its target human CYP11B2 (aldosterone generating enzyme), N-terminally truncated and modified, C-terminally His-tagged (human) (UniProt P19099).
The target of experiment [2] is human CYP11A1 (side-chain cleavage enzyme), N-terminally truncated and modified, C-terminally His-tagged (human) (UniProt P05108).
Experiment [3] deals with human CYP11B1 (11β-hydroxylase), N-terminally truncated and modified, C-terminally His-tagged (human) (UniProt P15538).

In experiment [1], “human CYP11B2 (aldosterone generating enzyme), N-terminally truncated and modified, C-terminally His-tagged (from UniProt P19099 25-503)” showed a stoichiometry N of 4. “human CYP11A1 (side-chain cleavage enzyme), N-terminally truncated and modified, C-terminally His-tagged (from UniProt P05108 40-521)” yielded a stoichiometry N in experiment [2] of 4.

Take “human CYP11B1 (11β-hydroxylase), N-terminally truncated and modified, C-terminally His-tagged (from UniProt P15538 25-503) (enzyme)”: in experiment [3], the stoichiometry N came out at 4.
